Assay results published in paper PMC12414692.

Columns and labels:
[1] = target: hNaV1.5 (human voltage-activated sodium channel alpha subunit NaV1.5, wild type) (human) (UniProt Q14524)
[2] = target: hNaV1.5 ΔKPQ (deletion of lysine, proline and glutamine at positions 1505–1507) (human) (UniProt Q14524)

B1: β4 peptide (derived from Homo sapiens sodium channel β4 subunit) (peptide)
peptide: KKLITFILKKTREK
current availability at pulse III (0 mV) after conditioning pulses from −20 to 90 mV and 5 ms at −100 mV, 30 μM β4 peptide in the pipette [1]: 1.5 fold | normalized INaR peak current, whole-cell voltage clamp of HEK293T cells, 30 μM β4 peptide in the pipette, against wild-type hNaV1.5 with the peptide (fold (against wild type with β4 peptide)) [2]: 2
